Data as given in patent US20240400708A1.

Target: feline FcRn complex (FcRn-α subunit and β-microglobulin), biotin labeled (feline)
Assay: SPR, pH 6

| Binder | Kd |
| --- | --- |
| feline IgG1a D399T (antibody, part only; not given: Variable domains, not shown: another chain or arm of the molecule) constant: ASTTAPSVFPLAPSCGTTSGATVALACLVLGYFPEPVTVSWNSGALTSGVHTFPAVLQASGLYSLSSMVTVPSSRWLSDTFTCNVAHPPSNTKVDKTVRKTDHPPGPKPCDCPKCPPPEMLGGPSIFIFPPKPKDTLSISRTPEVTCLVVDLGPDDSDVQITWFVDNTQVYTAKTSPREEQFNSTYRVVSVLPILHQDWLKGKEFKCKVNSKSLPSPIERTISKAKGQPHEPQVYVLPPAQEELSRNKVSVTCLIKSFHPPDIAVEWEITGQPEPENNYRTTPPQLTSDGTYFVYSKLSVDRSHWQRGNTYTCSVSHEALHSHHTQKSLTQSPGK | 6.75 nM |
| feline IgG1a S252Y/L314K (antibody, part only; not given: Variable domains, not shown: another chain or arm of the molecule) constant: ASTTAPSVFPLAPSCGTTSGATVALACLVLGYFPEPVTVSWNSGALTSGVHTFPAVLQASGLYSLSSMVTVPSSRWLSDTFTCNVAHPPSNTKVDKTVRKTDHPPGPKPCDCPKCPPPEMLGGPSIFIFPPKPKDTLYISRTPEVTCLVVDLGPDDSDVQITWFVDNTQVYTAKTSPREEQFNSTYRVVSVLPILHQDWKKGKEFKCKVNSKSLPSPIERTISKAKGQPHEPQVYVLPPAQEELSRNKVSVTCLIKSFHPPDIAVEWEITGQPEPENNYRTTPPQLDSDGTYFVYSKLSVDRSHWQRGNTYTCSVSHEALHSHHTQKSLTQSPGK | 10.9 nM |
| feline IgG1a S434V (antibody, part only; not given: Variable domains, not shown: another chain or arm of the molecule) constant: ASTTAPSVFPLAPSCGTTSGATVALACLVLGYFPEPVTVSWNSGALTSGVHTFPAVLQASGLYSLSSMVTVPSSRWLSDTFTCNVAHPPSNTKVDKTVRKTDHPPGPKPCDCPKCPPPEMLGGPSIFIFPPKPKDTLSISRTPEVTCLVVDLGPDDSDVQITWFVDNTQVYTAKTSPREEQFNSTYRVVSVLPILHQDWLKGKEFKCKVNSKSLPSPIERTISKAKGQPHEPQVYVLPPAQEELSRNKVSVTCLIKSFHPPDIAVEWEITGQPEPENNYRTTPPQLDSDGTYFVYSKLSVDRSHWQRGNTYTCSVSHEALHVHHTQKSLTQSPGK | 3.71 nM |
| feline IgG1a D312H (antibody, part only; not given: Variable domains, not shown: another chain or arm of the molecule; small tags and cut ends) constant: ASTTAPSVFPLAPSCGTTSGATVALACLVLGYFPEPVTVSWNSGALTSGVHTFPAVLQASGLYSLSSMVTVPSSRWLSDTFTCNVAHPPSNTKVDKTVRKTDHPPGPKPCDCPKCPPPEMLGGPSIFIFPPKPKDTLSISRTPEVTCLVVDLGPDDSDVQITWFVDNTQVYTAKTSPREEQFNSTYRVVSVLPILHQHWLKGKEFKCKVNSKSLPSPIERTISKAKGQPHEPQVYVLPPAQEELSRNKVSVTCLIKSFHPPDIAVEWEITGQPEPENNYRTTPPQLDSDGTYFVYSKLSVDRSHWQRGNTYTCSVSHEALHSHHTQKSLTQSPGK | 7.33 nM |
| feline IgG1a S252Y/Q311W/S434Y (antibody, part only; not given: Variable domains, not shown: another chain or arm of the molecule) constant: ASTTAPSVFPLAPSCGTTSGATVALACLVLGYFPEPVTVSWNSGALTSGVHTFPAVLQASGLYSLSSMVTVPSSRWLSDTFTCNVAHPPSNTKVDKTVRKTDHPPGPKPCDCPKCPPPEMLGGPSIFIFPPKPKDTLYISRTPEVTCLVVDLGPDDSDVQITWFVDNTQVYTAKTSPREEQFNSTYRVVSVLPILHWDWLKGKEFKCKVNSKSLPSPIERTISKAKGQPHEPQVYVLPPAQEELSRNKVSVTCLIKSFHPPDIAVEWEITGQPEPENNYRTTPPQLDSDGTYFVYSKLSVDRSHWQRGNTYTCSVSHEALHYHHTQKSLTQSPGK | 97.2 nM |
| feline IgG1a S252Y/S434F (antibody, part only; not given: Variable domains, not shown: another chain or arm of the molecule) constant: ASTTAPSVFPLAPSCGTTSGATVALACLVLGYFPEPVTVSWNSGALTSGVHTFPAVLQASGLYSLSSMVTVPSSRWLSDTFTCNVAHPPSNTKVDKTVRKTDHPPGPKPCDCPKCPPPEMLGGPSIFIFPPKPKDTLYISRTPEVTCLVVDLGPDDSDVQITWFVDNTQVYTAKTSPREEQFNSTYRVVSVLPILHQDWLKGKEFKCKVNSKSLPSPIERTISKAKGQPHEPQVYVLPPAQEELSRNKVSVTCLIKSFHPPDIAVEWEITGQPEPENNYRTTPPQLDSDGTYFVYSKLSVDRSHWQRGNTYTCSVSHEALHFHHTQKSLTQSPGK | 1970 nM |
| feline IgG1a S252Y/S434Y (antibody, part only; not given: Variable domains, not shown: another chain or arm of the molecule) constant: ASTTAPSVFPLAPSCGTTSGATVALACLVLGYFPEPVTVSWNSGALTSGVHTFPAVLQASGLYSLSSMVTVPSSRWLSDTFTCNVAHPPSNTKVDKTVRKTDHPPGPKPCDCPKCPPPEMLGGPSIFIFPPKPKDTLYISRTPEVTCLVVDLGPDDSDVQITWFVDNTQVYTAKTSPREEQFNSTYRVVSVLPILHQDWLKGKEFKCKVNSKSLPSPIERTISKAKGQPHEPQVYVLPPAQEELSRNKVSVTCLIKSFHPPDIAVEWEITGQPEPENNYRTTPPQLDSDGTYFVYSKLSVDRSHWQRGNTYTCSVSHEALHYHHTQKSLTQSPGK | 116 nM |
| feline IgG1a S252Y/S428Y/Q311W (antibody, part only; not given: Variable domains, not shown: another chain or arm of the molecule) constant: ASTTAPSVFPLAPSCGTTSGATVALACLVLGYFPEPVTVSWNSGALTSGVHTFPAVLQASGLYSLSSMVTVPSSRWLSDTFTCNVAHPPSNTKVDKTVRKTDHPPGPKPCDCPKCPPPEMLGGPSIFIFPPKPKDTLYISRTPEVTCLVVDLGPDDSDVQITWFVDNTQVYTAKTSPREEQFNSTYRVVSVLPILHWDWLKGKEFKCKVNSKSLPSPIERTISKAKGQPHEPQVYVLPPAQEELSRNKVSVTCLIKSFHPPDIAVEWEITGQPEPENNYRTTPPQLDSDGTYFVYSKLSVDRSHWQRGNTYTCSVYHEALHSHHTQKSLTQSPGK | 67.7 nM |

The remaining binders from weak to strong by Kd, led by results:

| Kd | Binder |
| --- | --- |
| 2140 nM | feline IgG1a T256S (antibody, part only; not given: Variable domains, not shown: another chain or arm of the molecule) constant: ASTTAPSVFPLAPSCGTTSGATVALACLVLGYFPEPVTVSWNSGALTSGVHTFPAVLQASGLYSLSSMVTVPSSRWLSDTFTCNVAHPPSNTKVDKTVRKTDHPPGPKPCDCPKCPPPEMLGGPSIFIFPPKPKDTLSISRSPEVTCLVVDLGPDDSDVQITWFVDNTQVYTAKTSPREEQFNSTYRVVSVLPILHQDWLKGKEFKCKVNSKSLPSPIERTISKAKGQPHEPQVYVLPPAQEELSRNKVSVTCLIKSFHPPDIAVEWEITGQPEPENNYRTTPPQLDSDGTYFVYSKLSVDRSHWQRGNTYTCSVSHEALHSHHTQKSLTQSPGK |
| 1230 nM | feline IgG1a Q311W/D312P/L314K (antibody, part only; not given: Variable domains, not shown: another chain or arm of the molecule) constant: ASTTAPSVFPLAPSCGTTSGATVALACLVLGYFPEPVTVSWNSGALTSGVHTFPAVLQASGLYSLSSMVTVPSSRWLSDTFTCNVAHPPSNTKVDKTVRKTDHPPGPKPCDCPKCPPPEMLGGPSIFIFPPKPKDTLSISRTPEVTCLVVDLGPDDSDVQITWFVDNTQVYTAKTSPREEQFNSTYRVVSVLPILHWPWKKGKEFKCKVNSKSLPSPIERTISKAKGQPHEPQVYVLPPAQEELSRNKVSVTCLIKSFHPPDIAVEWEITGQPEPENNYRTTPPQLDSDGTYFVYSKLSVDRSHWQRGNTYTCSVSHEALHSHHTQKSLTQSPGK |
| 164 nM | feline IgG1a S252Y/S434F/Q311W (antibody, part only; not given: Variable domains, not shown: another chain or arm of the molecule) constant: ASTTAPSVFPLAPSCGTTSGATVALACLVLGYFPEPVTVSWNSGALTSGVHTFPAVLQASGLYSLSSMVTVPSSRWLSDTFTCNVAHPPSNTKVDKTVRKTDHPPGPKPCDCPKCPPPEMLGGPSIFIFPPKPKDTLYISRTPEVTCLVVDLGPDDSDVQITWFVDNTQVYTAKTSPREEQFNSTYRVVSVLPILHWDWLKGKEFKCKVNSKSLPSPIERTISKAKGQPHEPQVYVLPPAQEELSRNKVSVTCLIKSFHPPDIAVEWEITGQPEPENNYRTTPPQLDSDGTYFVYSKLSVDRSHWQRGNTYTCSVSHEALHFHHTQKSLTQSPGK |
| 78.1 nM | feline IgG1a S252Y/S428Y/S434Y (antibody, part only; not given: variable domains and light chain, not shown: another chain or arm of the molecule) constant: ASTTAPSVFPLAPSCGTTSGATVALACLVLGYFPEPVTVSWNSGALTSGVHTFPAVLQASGLYSLSSMVTVPSSRWLSDTFTCNVAHPPSNTKVDKTVRKTDHPPGPKPCDCPKCPPPEMLGGPSIFIFPPKPKDTLYISRTPEVTCLVVDLGPDDSDVQITWFVDNTQVYTAKTSPREEQFNSTYRVVSVLPILHQDWLKGKEFKCKVNSKSLPSPIERTISKAKGQPHEPQVYVLPPAQEELSRNKVSVTCLIKSFHPPDIAVEWEITGQPEPENNYRTTPPQLDSDGTYFVYSKLSVDRSHWQRGNTYTCSVYHEALHYHHTQKSLTQSPGK |
| 27 nM | feline IgG1a Q311W/S434Y (antibody, part only; not given: Variable domains, not shown: another chain or arm of the molecule) constant: ASTTAPSVFPLAPSCGTTSGATVALACLVLGYFPEPVTVSWNSGALTSGVHTFPAVLQASGLYSLSSMVTVPSSRWLSDTFTCNVAHPPSNTKVDKTVRKTDHPPGPKPCDCPKCPPPEMLGGPSIFIFPPKPKDTLSISRTPEVTCLVVDLGPDDSDVQITWFVDNTQVYTAKTSPREEQFNSTYRVVSVLPILHWDWLKGKEFKCKVNSKSLPSPIERTISKAKGQPHEPQVYVLPPAQEELSRNKVSVTCLIKSFHPPDIAVEWEITGQPEPENNYRTTPPQLDSDGTYFVYSKLSVDRSHWQRGNTYTCSVSHEALHYHHTQKSLTQSPGK |
| 17.2 nM | feline IgG1a S252Y/S428Y (antibody, part only; not given: Variable domains, not shown: another chain or arm of the molecule) constant: ASTTAPSVFPLAPSCGTTSGATVALACLVLGYFPEPVTVSWNSGALTSGVHTFPAVLQASGLYSLSSMVTVPSSRWLSDTFTCNVAHPPSNTKVDKTVRKTDHPPGPKPCDCPKCPPPEMLGGPSIFIFPPKPKDTLYISRTPEVTCLVVDLGPDDSDVQITWFVDNTQVYTAKTSPREEQFNSTYRVVSVLPILHQDWLKGKEFKCKVNSKSLPSPIERTISKAKGQPHEPQVYVLPPAQEELSRNKVSVTCLIKSFHPPDIAVEWEITGQPEPENNYRTTPPQLDSDGTYFVYSKLSVDRSHWQRGNTYTCSVYHEALHSHHTQKSLTQSPGK |
| 10.5 nM | feline IgG1a S252Y/D312P (antibody, part only; not given: Variable domains, not shown: another chain or arm of the molecule; small tags and cut ends) constant: ASTTAPSVFPLAPSCGTTSGATVALACLVLGYFPEPVTVSWNSGALTSGVHTFPAVLQASGLYSLSSMVTVPSSRWLSDTFTCNVAHPPSNTKVDKTVRKTDHPPGPKPCDCPKCPPPEMLGGPSIFIFPPKPKDTLYISRTPEVTCLVVDLGPDDSDVQITWFVDNTQVYTAKTSPREEQFNSTYRVVSVLPILHQPWLKGKEFKCKVNSKSLPSPIERTISKAKGQPHEPQVYVLPPAQEELSRNKVSVTCLIKSFHPPDIAVEWEITGQPEPENNYRTTPPQLDSDGTYFVYSKLSVDRSHWQRGNTYTCSVSHEALHSHHTQKSLTQSPGK |
| 4.49 nM | feline IgG1a S434A (antibody, part only; not given: Variable domains, not shown: another chain or arm of the molecule) constant: ASTTAPSVFPLAPSCGTTSGATVALACLVLGYFPEPVTVSWNSGALTSGVHTFPAVLQASGLYSLSSMVTVPSSRWLSDTFTCNVAHPPSNTKVDKTVRKTDHPPGPKPCDCPKCPPPEMLGGPSIFIFPPKPKDTLSISRTPEVTCLVVDLGPDDSDVQITWFVDNTQVYTAKTSPREEQFNSTYRVVSVLPILHQDWLKGKEFKCKVNSKSLPSPIERTISKAKGQPHEPQVYVLPPAQEELSRNKVSVTCLIKSFHPPDIAVEWEITGQPEPENNYRTTPPQLDSDGTYFVYSKLSVDRSHWQRGNTYTCSVSHEALHAHHTQKSLTQSPGK |
